In publication PMC11931385, “Structural and functional analysis of cancer-associated missense variants in the retinoblastoma protein pocket domain” (The Journal of Biological Chemistry, 2025):
Substitutions are numbered along the chain they refer to. Names may count otherwise. No end group written: not given here. TMR = tetramethyl rhodamine dye

B1: TMR-E2F1^TD, peptide of the E2F1 transactivation domain (peptide)
peptide: {TMR}-GEGIRDLFDCDFGDLTPLD
notes: also called E2F^TD; source: synthetic peptide, bought: GenScript
B2: TMR-E7^LxCxE, LxCxE peptide of the E7 oncoprotein from HPV (peptide)
peptide: DLYCYEQLN
modifications: also: TMR label, position not given here
notes: source: synthetic peptide, bought: GenScript

Columns and labels:
Assay in all cases: fluorescence polarisation; 25 °C; unlabeled Rb^P titrated against 1.5 nM TMR-E2F1^TD or 7.5 nM TMR-E7^LxCxE; 25 mM Tris pH 8.0, 200 mM NaCl, 1 mM DTT, 0.1% Tween-20; 2 min incubation; quadratic fit; apparent Kd for the variants, Kd for WT
Conditions in all cases: both partners purified
Rb^P R741C = biological target: T1, Rb^P R741C (human, UniProt P06400 380-788, R741C)
T1 construct: also called variant 68
T1 sequence (looked up): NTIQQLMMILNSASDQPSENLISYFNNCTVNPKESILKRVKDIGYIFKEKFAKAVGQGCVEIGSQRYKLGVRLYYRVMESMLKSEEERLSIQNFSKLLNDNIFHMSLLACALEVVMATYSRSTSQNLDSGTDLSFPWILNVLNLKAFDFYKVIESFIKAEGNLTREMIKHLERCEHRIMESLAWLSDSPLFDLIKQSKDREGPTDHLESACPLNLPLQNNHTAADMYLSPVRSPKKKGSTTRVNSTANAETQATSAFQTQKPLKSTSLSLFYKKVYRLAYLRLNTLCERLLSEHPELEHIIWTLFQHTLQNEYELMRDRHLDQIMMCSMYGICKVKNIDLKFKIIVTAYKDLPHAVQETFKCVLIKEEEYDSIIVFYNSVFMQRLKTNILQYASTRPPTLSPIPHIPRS

Rb^P A488V = biological target: T2, Rb^P A488V (human, UniProt P06400 380-788, A488V)
T2 construct: also called variant 14
T2 sequence (looked up): T1 sequence (looked up) with A109V, C362R

Rb^P Q444L = biological target: T3, Rb^P Q444L (human, UniProt P06400 380-788, Q444L)
T3 construct: also called variant 3
T3 sequence (looked up): T1 sequence (looked up) with Q65L, C362R

Rb^P T687I = biological target: T4, Rb^P T687I (human, UniProt P06400 380-788, T687I)
T4 construct: also called variant 59
T4 sequence (looked up): T1 sequence (looked up) with T308I, C362R

Rb^P R621S = biological target: T5, Rb^P R621S (human, UniProt P06400 380-788, R621S)
T5 construct: also called variant 44
T5 sequence (looked up): T1 sequence (looked up) with R242S, C362R

Row | Binder | Kd (Rb^P R741C) [nM] | Kd (Rb^P A488V) [nM] | Kd (Rb^P Q444L) [nM] | Kd (Rb^P T687I) [nM] | Kd (Rb^P R621S) [nM]
1 | B1 | 23 | 53 | 14 | 20 | 21
2 | B2 | 14 | 9 | 4 | 13 | 6
